In general, EC50 (read off the curve) refers to the concentration at which the effect is half-maximal. A higher EC50 (read off the curve) goes with a need for much substance.

Experimental findings from patent US20210403514A1 (NATIONAL INSTITUTE FOR BIOTECHNOLOGY IN THE NEGEV, published 2021) are described below.

The target in one series is T1, integrin α3β1 (human, UniProt P26006 33-991; P05556 21-728, limits assumed).
T1 construct: Immobilised on the SPR chip
Description: SPR (ProteOn XPR36); α3β1 integrin immobilized, variant flowed at 1 µM.

Series [1] deals with the molecule itself. Put plainly: BS3 chemical crosslinking, denaturing SDS-PAGE, Coomassie stain; self-association (homodimer).
The target of series [2] is T2, soluble human αvβ3 integrin (human, UniProt P06756 31-992; P05106 27-718).
T2 construct: R&D Systems for yeast display; also called integrin αvβ3; recombinant αvβ3 integrin
Put plainly: SPR (ProteOn XPR36), variant immobilised, αvβ3 integrin 0-200 nM as analyte, equilibrium.

The next series concerns the target T3, integrin α4β7 (human, UniProt P13612 34-977; P26010 20-723, limits assumed).
T3 construct: Immobilised on the SPR chip
Put plainly: SPR (ProteOn XPR36); α4β7 integrin immobilized, variant flowed at 1 µM.

The target of another series is T4, integrin α5β1 (human, UniProt P08648 42-995; P05556 21-728, limits assumed).
T4 construct: Immobilised on the SPR chip
Put plainly: SPR (ProteOn XPR36); α5β1 integrin immobilized, variant flowed at 1 µM.

Series [3] addresses T5, soluble human c-FMS receptor (extracellular domains, residues Met1-Glu512) (Sino Biological) (human, UniProt P07333 20-512).
T5 construct: range 1-512; Analyte in both SPR experiments; The printed range starts at Met1, so it includes the signal peptide; also called human c-FMS soluble proteins
Description: SPR (ProteOn XPR36), variant immobilised, c-FMS 0-200 nM as analyte, equilibrium.

Series [4] deals with the molecule itself. Put plainly: BS3 chemical crosslinking, denaturing SDS-PAGE, Coomassie stain; self-association (homodimer). This is another data set of the same source.
Series [5] concerns the target T2, soluble human αvβ3 integrin. Description: SPR (ProteOn XPR36), M-CSFαvβ3 immobilised, αvβ3 integrin 0-200 nM as analyte, equilibrium.
Series [6] concerns the molecule itself. Description: SAXS, radius of gyration against protein concentration; oligomeric state (homodimer) in solution.
The target in series [7] is T5, soluble human c-FMS receptor …. Description: SPR (ProteOn XPR36), M-CSF protein immobilised, c-FMS (Met1-Glu512) 4.375-70 nM as analyte, equilibrium, N=3.
Series [8] has as its target T6, soluble Fc conjugated human c-FMS (R&D systems) (human, UniProt P07333 20-512).
T6 construct: Bought reagent; Used in all yeast display experiments; also called c-FMS-Fc; c-FMS-Fc recombinant protein; not shown: Fc (detected with goat anti human Fc)
Put plainly: yeast surface display flow cytometry; displayed M-CSFM titrated with c-FMS-Fc (0.5 nM to 2000 nM); apparent KD. (In general: A flow cytometer gives signals particle by particle.)

For series [9], the target named is T6, soluble Fc conjugated human c-FMS (R&D …). Put plainly: yeast surface display, flow cytometry; soluble c-FMS-Fc titrated from 0.5 to 2000 nM.
Series [10] has as its target T5, soluble human c-FMS receptor …. Description: SPR (ProteOn XPR36), M-CSF protein immobilised, c-FMS 0-200 nM as analyte, equilibrium.
Series [11] deals with the molecule itself. Description: BS3 chemical crosslinking, SDS-PAGE, InstantBlue stain; self-association (homodimer).
Series [12] has as its target T2, soluble human αvβ3 integrin. Put plainly: SPR (ProteOn XPR36); variant immobilized by amine coupling, soluble αvβ3 integrin flowed at 12.5 to 200 nM; panel assigned to M-CSFM although the legend prints '9A and 9E'.
For series [13], the target named is T7, murine c-FMS on bone marrow derived monocytes (BMMs) (mouse, UniProt P09581 20-977).
T7 sequence (looked up): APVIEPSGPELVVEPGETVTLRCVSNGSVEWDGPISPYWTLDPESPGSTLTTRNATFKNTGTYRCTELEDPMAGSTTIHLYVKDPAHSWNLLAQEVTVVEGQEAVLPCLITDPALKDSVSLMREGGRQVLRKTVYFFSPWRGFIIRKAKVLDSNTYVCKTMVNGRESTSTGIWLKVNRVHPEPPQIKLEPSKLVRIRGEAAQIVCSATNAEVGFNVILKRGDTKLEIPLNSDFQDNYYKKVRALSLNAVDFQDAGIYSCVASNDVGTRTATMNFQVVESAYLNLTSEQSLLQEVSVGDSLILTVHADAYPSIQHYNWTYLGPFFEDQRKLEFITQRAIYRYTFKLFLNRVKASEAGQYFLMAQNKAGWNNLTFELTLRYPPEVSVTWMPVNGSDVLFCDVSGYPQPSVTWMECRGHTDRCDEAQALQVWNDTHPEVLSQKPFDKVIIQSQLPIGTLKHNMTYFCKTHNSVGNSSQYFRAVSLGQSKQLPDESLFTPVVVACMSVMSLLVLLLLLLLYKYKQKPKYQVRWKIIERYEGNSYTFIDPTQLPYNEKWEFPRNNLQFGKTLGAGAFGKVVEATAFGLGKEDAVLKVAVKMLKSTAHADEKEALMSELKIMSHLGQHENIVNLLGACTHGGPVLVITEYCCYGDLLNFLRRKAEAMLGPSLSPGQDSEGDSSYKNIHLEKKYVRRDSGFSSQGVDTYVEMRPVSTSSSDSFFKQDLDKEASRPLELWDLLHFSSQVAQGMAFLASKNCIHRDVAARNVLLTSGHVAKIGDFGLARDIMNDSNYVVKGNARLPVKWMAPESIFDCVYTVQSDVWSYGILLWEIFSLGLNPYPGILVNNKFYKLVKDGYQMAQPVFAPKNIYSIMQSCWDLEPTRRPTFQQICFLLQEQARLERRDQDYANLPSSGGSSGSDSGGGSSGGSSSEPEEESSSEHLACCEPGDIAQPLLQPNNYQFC
Put plainly: cell-based or functional assay.

For series [14], the target named is T5, soluble human c-FMS receptor …. Put plainly: SPR (ProteOn XPR36), M-CSF protein immobilised, c-FMS (Met1-Glu512) as analyte, equilibrium, N=3.

T2 sequence (P06756 31-992 limits assumed, chain 1 of 2): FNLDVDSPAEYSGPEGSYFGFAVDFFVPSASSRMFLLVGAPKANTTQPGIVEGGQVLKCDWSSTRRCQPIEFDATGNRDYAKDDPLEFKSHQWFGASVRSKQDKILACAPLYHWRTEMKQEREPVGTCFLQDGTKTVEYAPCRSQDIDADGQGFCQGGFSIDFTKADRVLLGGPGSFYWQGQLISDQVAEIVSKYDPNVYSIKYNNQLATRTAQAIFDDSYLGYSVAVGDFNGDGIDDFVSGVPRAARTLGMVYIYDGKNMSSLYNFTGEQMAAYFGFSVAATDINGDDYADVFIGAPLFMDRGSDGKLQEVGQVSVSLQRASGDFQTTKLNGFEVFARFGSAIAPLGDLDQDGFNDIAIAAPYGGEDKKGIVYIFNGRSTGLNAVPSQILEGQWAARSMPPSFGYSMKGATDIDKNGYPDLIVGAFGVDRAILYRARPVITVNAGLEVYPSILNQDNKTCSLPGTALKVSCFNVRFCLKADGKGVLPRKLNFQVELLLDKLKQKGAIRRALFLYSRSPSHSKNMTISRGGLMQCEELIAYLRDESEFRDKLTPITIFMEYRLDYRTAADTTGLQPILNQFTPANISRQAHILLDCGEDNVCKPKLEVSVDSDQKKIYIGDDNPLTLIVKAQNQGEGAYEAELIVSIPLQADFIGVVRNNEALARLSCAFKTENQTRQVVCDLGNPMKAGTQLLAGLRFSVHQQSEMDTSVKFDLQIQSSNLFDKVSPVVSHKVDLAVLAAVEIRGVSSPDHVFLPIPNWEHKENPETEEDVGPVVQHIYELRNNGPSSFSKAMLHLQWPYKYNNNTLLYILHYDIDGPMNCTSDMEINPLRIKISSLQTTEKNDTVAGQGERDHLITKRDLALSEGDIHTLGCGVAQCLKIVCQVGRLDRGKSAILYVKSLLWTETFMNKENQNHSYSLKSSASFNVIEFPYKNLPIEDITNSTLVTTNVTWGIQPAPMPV
T2 sequence (P05106 27-718 limits assumed, chain 2 of 2): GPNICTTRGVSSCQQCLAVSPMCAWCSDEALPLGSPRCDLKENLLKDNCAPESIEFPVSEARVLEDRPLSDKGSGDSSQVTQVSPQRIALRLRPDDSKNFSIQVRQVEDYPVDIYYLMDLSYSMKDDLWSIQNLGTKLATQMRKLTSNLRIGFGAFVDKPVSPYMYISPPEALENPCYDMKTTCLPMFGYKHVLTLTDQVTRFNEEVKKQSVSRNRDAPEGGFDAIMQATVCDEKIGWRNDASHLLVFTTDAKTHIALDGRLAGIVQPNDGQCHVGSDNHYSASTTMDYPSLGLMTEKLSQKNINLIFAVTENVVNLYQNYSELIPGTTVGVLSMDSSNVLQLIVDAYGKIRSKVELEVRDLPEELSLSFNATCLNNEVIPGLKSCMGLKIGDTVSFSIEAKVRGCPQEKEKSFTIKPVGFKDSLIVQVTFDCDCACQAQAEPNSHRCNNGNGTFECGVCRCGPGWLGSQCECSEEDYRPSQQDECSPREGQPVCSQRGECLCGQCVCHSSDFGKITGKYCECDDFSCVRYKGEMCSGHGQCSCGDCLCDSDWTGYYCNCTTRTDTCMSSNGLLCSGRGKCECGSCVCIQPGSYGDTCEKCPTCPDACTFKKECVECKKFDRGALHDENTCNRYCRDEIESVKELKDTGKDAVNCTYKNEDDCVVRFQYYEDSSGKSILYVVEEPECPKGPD
T5 sequence (P07333 20-512 limits assumed): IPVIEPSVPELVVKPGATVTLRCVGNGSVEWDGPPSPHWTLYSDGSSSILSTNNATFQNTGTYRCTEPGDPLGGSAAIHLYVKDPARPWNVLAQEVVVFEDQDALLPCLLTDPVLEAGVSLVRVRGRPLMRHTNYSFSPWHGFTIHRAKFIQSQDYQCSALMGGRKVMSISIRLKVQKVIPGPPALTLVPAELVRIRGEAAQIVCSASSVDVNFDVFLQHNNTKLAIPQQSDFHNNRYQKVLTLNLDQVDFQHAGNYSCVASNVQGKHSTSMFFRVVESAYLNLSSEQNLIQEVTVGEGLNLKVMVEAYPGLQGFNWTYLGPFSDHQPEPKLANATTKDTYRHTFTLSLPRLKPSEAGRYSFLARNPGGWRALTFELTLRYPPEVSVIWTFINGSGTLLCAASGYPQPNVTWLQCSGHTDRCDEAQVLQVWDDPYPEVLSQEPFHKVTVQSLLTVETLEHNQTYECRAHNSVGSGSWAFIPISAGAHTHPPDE
T1 sequence (P26006 33-991 limits assumed, chain 1 of 2): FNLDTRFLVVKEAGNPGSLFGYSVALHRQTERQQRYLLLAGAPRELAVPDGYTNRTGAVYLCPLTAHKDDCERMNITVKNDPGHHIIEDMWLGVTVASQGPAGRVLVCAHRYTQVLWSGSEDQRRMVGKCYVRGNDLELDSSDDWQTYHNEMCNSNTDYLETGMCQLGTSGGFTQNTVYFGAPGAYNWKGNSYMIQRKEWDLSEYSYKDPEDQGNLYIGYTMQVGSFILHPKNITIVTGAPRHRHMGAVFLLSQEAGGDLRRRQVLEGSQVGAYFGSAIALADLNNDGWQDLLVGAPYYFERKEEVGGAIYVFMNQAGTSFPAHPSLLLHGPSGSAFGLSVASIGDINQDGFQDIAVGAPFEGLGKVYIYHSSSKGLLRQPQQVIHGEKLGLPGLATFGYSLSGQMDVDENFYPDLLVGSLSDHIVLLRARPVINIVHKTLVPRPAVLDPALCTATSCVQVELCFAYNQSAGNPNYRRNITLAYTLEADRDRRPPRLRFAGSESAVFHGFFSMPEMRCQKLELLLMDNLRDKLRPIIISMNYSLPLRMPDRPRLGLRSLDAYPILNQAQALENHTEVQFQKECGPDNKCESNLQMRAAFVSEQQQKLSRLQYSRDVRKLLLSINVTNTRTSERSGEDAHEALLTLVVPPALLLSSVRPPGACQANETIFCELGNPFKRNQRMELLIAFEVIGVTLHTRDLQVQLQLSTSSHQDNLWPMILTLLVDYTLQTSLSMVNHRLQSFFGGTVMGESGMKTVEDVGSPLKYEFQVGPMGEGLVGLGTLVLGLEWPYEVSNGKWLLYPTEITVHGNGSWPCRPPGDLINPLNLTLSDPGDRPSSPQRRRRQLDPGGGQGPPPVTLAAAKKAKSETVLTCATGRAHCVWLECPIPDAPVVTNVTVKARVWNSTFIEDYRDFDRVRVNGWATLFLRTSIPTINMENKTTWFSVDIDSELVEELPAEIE
T1 sequence (P05556 21-728 limits assumed, chain 2 of 2): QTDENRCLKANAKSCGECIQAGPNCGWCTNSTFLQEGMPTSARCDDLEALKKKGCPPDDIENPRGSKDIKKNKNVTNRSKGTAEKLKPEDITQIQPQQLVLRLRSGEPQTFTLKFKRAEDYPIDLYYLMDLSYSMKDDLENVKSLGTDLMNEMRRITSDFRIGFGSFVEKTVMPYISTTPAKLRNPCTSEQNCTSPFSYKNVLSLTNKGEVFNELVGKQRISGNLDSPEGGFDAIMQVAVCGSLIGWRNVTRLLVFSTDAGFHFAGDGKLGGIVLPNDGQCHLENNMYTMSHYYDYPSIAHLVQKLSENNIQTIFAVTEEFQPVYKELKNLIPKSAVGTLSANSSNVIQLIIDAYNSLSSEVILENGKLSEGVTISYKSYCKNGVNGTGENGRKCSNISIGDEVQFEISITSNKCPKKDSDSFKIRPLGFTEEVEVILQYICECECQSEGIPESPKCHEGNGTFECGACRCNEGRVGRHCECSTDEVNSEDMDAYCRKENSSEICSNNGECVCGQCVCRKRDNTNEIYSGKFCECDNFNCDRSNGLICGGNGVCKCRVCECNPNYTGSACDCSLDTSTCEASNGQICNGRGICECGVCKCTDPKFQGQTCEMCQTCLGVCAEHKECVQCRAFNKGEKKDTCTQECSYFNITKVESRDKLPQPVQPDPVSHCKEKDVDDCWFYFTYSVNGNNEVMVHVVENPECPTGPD
T4 sequence (P08648 42-995 limits assumed, chain 1 of 2): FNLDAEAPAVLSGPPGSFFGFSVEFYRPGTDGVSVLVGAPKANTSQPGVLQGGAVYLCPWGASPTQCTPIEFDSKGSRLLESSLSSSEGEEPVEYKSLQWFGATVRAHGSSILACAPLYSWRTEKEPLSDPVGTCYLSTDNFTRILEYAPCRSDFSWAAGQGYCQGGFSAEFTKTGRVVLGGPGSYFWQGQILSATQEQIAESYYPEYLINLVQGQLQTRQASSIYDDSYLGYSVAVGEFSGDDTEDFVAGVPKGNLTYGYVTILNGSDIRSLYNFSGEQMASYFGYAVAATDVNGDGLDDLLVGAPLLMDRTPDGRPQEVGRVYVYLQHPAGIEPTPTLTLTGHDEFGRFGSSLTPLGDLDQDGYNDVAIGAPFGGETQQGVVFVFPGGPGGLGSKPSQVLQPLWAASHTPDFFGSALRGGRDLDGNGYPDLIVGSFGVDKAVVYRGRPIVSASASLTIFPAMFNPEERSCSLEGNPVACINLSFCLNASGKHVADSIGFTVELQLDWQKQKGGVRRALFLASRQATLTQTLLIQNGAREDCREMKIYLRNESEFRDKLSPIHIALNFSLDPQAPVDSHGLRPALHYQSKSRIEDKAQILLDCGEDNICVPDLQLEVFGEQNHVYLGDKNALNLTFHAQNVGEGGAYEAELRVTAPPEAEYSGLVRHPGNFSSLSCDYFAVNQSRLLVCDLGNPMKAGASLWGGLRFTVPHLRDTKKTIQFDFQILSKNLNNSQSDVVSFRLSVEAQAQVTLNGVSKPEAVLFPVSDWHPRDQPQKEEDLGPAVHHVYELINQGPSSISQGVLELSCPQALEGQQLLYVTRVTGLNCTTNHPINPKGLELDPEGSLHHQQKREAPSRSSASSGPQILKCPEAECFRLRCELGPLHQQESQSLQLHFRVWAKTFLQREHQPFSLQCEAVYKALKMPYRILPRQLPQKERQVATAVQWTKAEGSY
T4 sequence (P05556 21-728 limits assumed, chain 2 of 2): as the sequence (P05556 21-728 limits assumed, chain 2 of 2) above
T6 sequence (P07333 20-512 limits assumed): as the sequence (P07333 20-512 limits assumed) above

B1: M-CSFRGD variant 4.24, purified soluble, non-glycosylated (designed binder)
chain: EEVSEYCSHMIGSGHLQSLQRLIDSQMETSSQITFEFVDQEQLKDPVCYLKKAFLLVQDIMEDEPVRGDNINPNAIAIVQLQELSLRLKSCFTKDYEEHDKACVRTFYETPLQLLEKVKNVFNETKNLLDKDWNIFSKNCNNSFAECSSQGHERQSEGS
modifications: N-glycans removed with Endo HF (non-glycosylated)
notes: not shown: FLAG tag at the N-terminus of the cloning site (pPIC9K); 6xHis tag at the C-terminus of the cloning site
In the case of B1, the binding result in the series with integrin α3β1 was “no binding (tested: 1 µM)”; in series [1], “no binding”; in the series with integrin α4β7 it was “no binding (tested: 1 µM)”; with integrin α5β1, “no binding (tested: 1 µM)”. In addition, the Kd in series [2] was 108 nM; in series [3] it was 219 nM.

B2: M-CSFRGD variant 4.22, purified soluble, non-glycosylated (designed binder)
chain: EEVSEYCSHMIGSGHLQSLQRLIDQTSRGDSPSITFEFVDQEQLKDPVCYLKKAFLLVQDIMEDTMRFRDNTPNAIAIVQLQELSLRLKSCFTKDYEEHDKACVRTFYETPLQLLEKVKNVFNETKNLLDKDWNIFSKNCNNSFAECSSQGHERQSEGS
modifications: N-glycans removed with Endo HF (non-glycosylated). Labelled with DyLight 488 NHS ester on amines for the cell binding assays. Amine-coupled to the chip for SPR.
notes: Pichia pastoris product; 21.7 kDa by MS; not shown: N-terminal FLAG tag, C-terminal 6xHis tag and the vector junction residues (pPIC9K cloning site)
Consider B2, for which the binding result with integrin α3β1 is given as “no binding (tested: 1 µM)”; in [4] it was “no binding”; with integrin α4β7 it was “no binding (tested: 1 µM)”; in the series with integrin α5β1, “no binding (tested: 1 µM)”. Moreover, the Kd in series [2] was 199 nM; in series [3] it was 152 nM.

B3: M-CSFRGD variant 5.6, purified soluble, non-glycosylated (designed binder)
chain: EEVSEYCSHMIGSGHLQSLQRLIDTYPRGDMCSITFEFVDQEQLKDPVCYLKKAFLLVQDIMEDTMRFRDNTPNAIAIVQLQELSLRLKSCFTKDYEEHDKACVRTFYETPLQLLEKVKNVFNETKNLLDKDWNIFSKNCNNSFAECSSQGHERQSEGS
modifications: N-glycans removed with Endo HF (non-glycosylated). Labelled with DyLight 488 NHS ester on amines for the cell binding assays. Amine-coupled to the chip for SPR.
notes: Pichia pastoris product; 22 kDa by MS; also called M-CSFRGD 5.6; M-CSF5.6; not shown: N-terminal FLAG tag, C-terminal 6xHis tag and the vector junction residues (pPIC9K cloning site)
As to B3, the binding result with integrin α3β1 is “no binding (tested: 1 µM)”; in [1], “no binding”; with integrin α4β7, “no binding (tested: 1 µM)”; with integrin α5β1, “no binding (tested: 1 µM)”. Besides, the values for the Kd in series [2] and in series [3] were 245 nM and 96 nM, respectively.

B4: M-CSFαvβ3 (variant 4.22 with histidine to alanine in positions 9 and 15), purified soluble (designed binder, not shown: small tags and cut ends)
chain: EEVSEYCSAMIGSGALQSLQRLIDQTSRGDSPSITFEFVDQEQLKDPVCYLKKAFLLVQDIMEDTMRFRDNTPNAIAIVQLQELSLRLKSCFTKDYEEHDKACVRTFYETPLQLLEKVKNVFNETKNLLDKDWNIFSKNCNNSFAECSSQGHERQSEGS
modifications: Expressed in Pichia with an N-terminal FLAG tag and a C-terminal 6xHis tag, neither of which is in the letters. N-glycans were removed with Endo HF.
Take B4: in [5], the Kd was determined as 231 nM.

B5: human wild-type M-CSF (M-CSFWT) (ligand)
chain: EEVSEYCSHMIGSGHLQSLQRLIDSQMETSCQITFEFVDQEQLKDPVCYLKKAFLLVQDIMEDTMRFRDNTPNAIAIVQLQELSLRLKSCFTKDYEEHDKACVRTFYETPLQLLEKVKNVFNETKNLLDKDWNIFSKNCNNSFAECSSQGHERQSEGS
notes: also called human M-CSFWT
As for B5, the binding result in series [6] is given as “binds”. The same molecule yielded a Kd in [7] of 25.1 nM.

B6: M-CSFM displayed on the yeast surface (YSD M-CSFM) (ligand)
chain: EEVSEYCSHMIGSGHLQSLQRLIDSQMETSSQITFEFVDQEQLKDPVCYLKKAFLLVQDIMEDTMRFRDNTPNAIAIVQLQELSLRLKSCFTKDYEEHDKACVRTFYETPLQLLEKVKNVFNETKNLLDKDWNIFSKNCNNSFAECSSQGHERQSEGS
notes: also called M-CSF monomer; not shown: yeast surface display fusion partner (pCTCON construct on the S. cerevisiae cell wall, with c-myc tag)
With B6, the Kd in [8] came to 20 nM. Besides, the concentration for a half-maximal effect (EC50 (read off the curve)) in series [9] was ~20 nM.

B7: M-CSFM, purified soluble, non-glycosylated (M-CSFC31S) (ligand)
chain: EEVSEYCSHMIGSGHLQSLQRLIDSQMETSSQITFEFVDQEQLKDPVCYLKKAFLLVQDIMEDTMRFRDNTPNAIAIVQLQELSLRLKSCFTKDYEEHDKACVRTFYETPLQLLEKVKNVFNETKNLLDKDWNIFSKNCNNSFAECSSQGHERQSEGS
modifications: N-glycans removed with Endo HF (non-glycosylated)
notes: Expressed in Pichia pastoris GS115; Forms non-covalent dimers; also called non-glycosylated M-CSFM; M-CSF monomer; not shown: FLAG tag at the N-terminus of the cloning site (pPIC9K); 6xHis tag at the C-terminus of the cloning site
Molecule B7 showed a Kd in series [10] of 31.6 nM. Also, in series [11], the binding result is “binds”. Also, the binding result in [12] was “no binding (tested: 200 nM)”. In addition, in [13], the “c-FMS phosphorylation at the peak concentration, fold against M-CSFWT” value was determined as 10 fold and the “c-FMS phosphorylation at the peak concentration, fold against the positive control (0.5 nM murine M-CSF)” value stood at 40 fold.

B8: M-CSFC31S,M27R (designed binder)
chain: EEVSEYCSHMIGSGHLQSLQRLIDSQRETSSQITFEFVDQEQLKDPVCYLKKAFLLVQDIMEDTMRFRDNTPNAIAIVQLQELSLRLKSCFTKDYEEHDKACVRTFYETPLQLLEKVKNVFNETKNLLDKDWNIFSKNCNNSFAECSSQGHERQSEGS
notes: monomer; Purified from Pichia pastoris GS115; also called M-CSFM,M27R; M-CSF double mutant
In series [14], B8 yielded a Kd of 61.5 nM. In series [11], the binding result is “no binding”.

B9: glycosylated M-CSFM, purified soluble (ligand)
chain: EEVSEYCSHMIGSGHLQSLQRLIDSQMETSSQITFEFVDQEQLKDPVCYLKKAFLLVQDIMEDTMRFRDNTPNAIAIVQLQELSLRLKSCFTKDYEEHDKACVRTFYETPLQLLEKVKNVFNETKNLLDKDWNIFSKNCNNSFAECSSQGHERQSEGS
modifications: N-glycosylated (two glycosylation sites in positions 122 and 140)
notes: Pichia pastoris product without Endo HF treatment; not shown: FLAG tag at the N-terminus of the cloning site (pPIC9K); 6xHis tag at the C-terminus of the cloning site
In [10], B9 yielded a Kd of 42.6 nM.
